# Experimental data taken from patent US20110076298A1, “Soluble stabilized trimeric hiv env proteins and uses thereof” (priority 2006, published 2011).
# Key:
# [1] = Tween 20 aggregate conversion/collapse experiments, BN-PAGE; format: physicochemical; settings: 0° C., room temperature, 37° C.
# Method: FIGS. 6A-6D: Tween® 20 conversion experiments. (A) Dose response: Purified KNH1144 SOSIP R6 gp140 trimer was incubated with 0 (no detergent control), or 0.1, 0.05, 0.01, 0.001, or 0.0001% Tween® 20 and analyzed by BN-PAGE and Coomassie G-250 stain. Arrows point to HMW aggregate and trimer species. M stands for the 669 k thyroglobulin and 440 k ferritin molecular weight protein standards. (B) Time course: Purified KNH1144 SOSIP R6 gp140 trimer was incubated with Tween® 20 for 5 min (left panel) or 10 min (right panel). Trimer was either untreated (−lane) or Tween® 20 treated (+lane). Arrows indicate trimer and HMW aggregate bands. […]
# Tween® 20 Dose effect: 1 ug of purified KNH1144 SOSIP R6 trimer was incubated with varying concentrations of Tween® 20 (polyoxyethylene sorbitan monolaurate) ranging from 0 to 0.0001% (v/v) and incubated for 1 hour at room temperature. Following incubation, samples were analyzed by BN-PAGE as described above. […]
# Temperature dependance on Tween® 20 effect: To determine if temperature affected the ability of Tween® 20 to recover trimers from aggregates (i.e., collapse aggregate into trimer), 1 ug of purified KNH1144 SOSIP R6 trimer was incubated with Tween® 20 to a final concentration of 0.05% (v/v) at 0° C. […] Following the incubation, samples were analyzed by BN-PAGE and Coomassie staining. […]
# [2] = test system: 2G12, b6, b12, CD4-IgG2, HIVIg; test: Lectin ELISA antigenicity, untreated vs Tween 20 treated; format: binding; settings: 0.05% Tween 20, lectin ELISA
# Excerpt: FIG. 8: Effect of Tween® 20 treatment on KNH1144 SOSIP R6 HMW aggregate antigenicity. Lectin ELISA of untreated and Tween® 20 treated KNH1144 SOSIP R6 HMW aggregate: Untreated or Tween® 20-treated HMW aggregate were bound to GNA lectin coated ELISA plates and probed with 2G12, b6, b12, CD4-IgG2, and HIVIg. The panels represent their respective binding curves. Antibody affinity to the untreated HMW aggregate is represented by the curve having diamond lines. Affinity to the Tween® 20 treated HMW aggregate is represented by curve having square lines. The Y-axis represents the colorimetric signal at OD492 and the X-axis represents antibody concentration in [ug/ml]. Lectin ELISA of untreated and Tween® 20-treated KNH1144 SOSIP R6 gp140 trimer: Untreated or Tween® 20 treated trimer (containing 10-15% HMW aggregate) were bound to GNA lectin coated ELISA plates and probed with 2G12, b6, b12, and CD4-IgG2. The panels represent their respective binding curves. Antibody affinity to the untreated trimer is represented by the curve having diamond lines. Affinity to the Tween® 20 treated trimer is represented by the curve having square lines. The Y-axis represents the colorimetric signal at OD492 and the X-axis represents antibody concentration in [ug/ml].
# ELISA plates were coated overnight at 4° C. with lentil lectin powder from Lens culinaris (L9267, Sigma) at 10 ug/ml concentration. […]
substance,measurement,setting,value
"KNH1144 SOSIP R6 HMW aggregate: high molecular weight aggregate species of KNH1144 SOSIP R6 gp140, slower migrating on BN-PAGE",temperature dependence of the Tween 20 effect,[1],temperature independent
same,"antibody binding, Tween 20 treated vs untreated",[2],increased binding
